Experimental data: PMC5976746

Columns and labels:
[1] = molecular target: BG505 NFL (native flexibly linked) HIV-1 envelope glycoprotein trimer from CHO-M cells (HIV-1); assay: SEC; Superdex 200 (S200) after lectin-affinity column; UV absorbance at 280 nm
[2] = molecular target: BG505 NFL (native flexibly linked) HIV-1 envelope glycoprotein trimer from CHO-M cells (HIV-1); assay: native gel or EMSA; blue-native PAGE of SEC fractions (F4-F9) of lectin-purified pool Z supernatant
[3] = molecular target: BG505 NFL (native flexibly linked) HIV-1 envelope glycoprotein trimer from CHO-M cells (HIV-1); assay: negative-stain electron microscopy; peak SEC fraction from pool Z; 2% uranyl formate, 2D class averages
[4] = molecular target: BG505 NFL (native flexibly linked) HIV-1 envelope glycoprotein trimer from 293F cells (HIV-1); assay: SEC; Superdex 200 (S200) after lectin-affinity column; UV absorbance at 280 nm

Substance	stoichiometry N [1]	stoichiometry N [2]	stoichiometry N [3]	stoichiometry N [4]
BG505 NFL (native flexibly linked) HIV-1 envelope glycoprotein trimer from CHO-M cells	3	3	3	–
BG505 NFL (native flexibly linked) HIV-1 envelope glycoprotein trimer from 293F cells	–	–	–	3
